Here are results for 167 variants from the Human Domainome abundance scans (Beltran et al. 2025).

± gives the uncertainty stated by the source.

B1: Apoptosis-associated speck-like protein containing a CARD, residues 114 to 194; numbered along this chain, Q9ULZ3 (parent)
chain: FIDQHRAALIARVTNVEWLLDALYGKVLTDEQYQAVRAEPTNPSKMRKLFSFTPAWNWTCKDLLLQALRESQSYLVEDLER

In the data set the parent is B1. Kind of data set: abundance fitness (aPCA) (normalised: wild type 0, dead -1); higher = more abundant; growth selection in yeast, the domain comes from the species named. The note with it: Homo sapiens.
Regarding N15V, the abundance fitness was -0.947 ± 0.14.

N15D: the abundance fitness is -0.142 ± 0.068.

N15T: the abundance fitness is -0.518 ± 0.099.

Turning to N15K, the abundance fitness was -0.041 ± 0.09.

For the variant N15L, the abundance fitness was -0.796 ± 0.15.

Regarding N15R, the abundance fitness is -0.359 ± 0.06.

In the case of S44I, the abundance fitness was -0.398 ± 0.33.

With S44L, the abundance fitness was determined as 0.031 ± 0.05.

S44C: the abundance fitness is -0.268 ± 0.089.

As for F52R, the abundance fitness was -0.824 ± 0.096.

Consider F52I, for which the abundance fitness is -0.53 ± 0.19.

Regarding E17T, the abundance fitness was -0.267 ± 0.066.

On to E17S, for which the abundance fitness was -0.536 ± 0.06.

In the case of E17C, the abundance fitness was -0.867 ± 0.21.

With D78A, the abundance fitness was -0.286 ± 0.085.

Turning to D78S, the abundance fitness is -0.119 ± 0.041.

In the case of D78V, the abundance fitness is -0.45 ± 0.083.

Turning to A35P, the abundance fitness was -0.664 ± 0.12.

Regarding A35Q, the abundance fitness is -0.011 ± 0.076.

Take A35V: the abundance fitness is -0.365 ± 0.051.

On to A35G, for which the abundance fitness is -0.472 ± 0.061.

As to Q66T, the abundance fitness is -0.323 ± 0.081.

Regarding Q66N, the abundance fitness is -0.529 ± 0.27.

For Q66A, the abundance fitness was -0.371 ± 0.049.

Regarding P40W, the abundance fitness was -0.832 ± 0.12.

With P40D, the abundance fitness was -0.38 ± 0.16.

For P40S, the abundance fitness is -0.291 ± 0.063.

Regarding P40L, the abundance fitness was -0.587 ± 0.074.

As for P40C, the abundance fitness is -0.434 ± 0.096.

As for P40N, the abundance fitness is -0.419 ± 0.18.

Take P40F: the abundance fitness was -0.912 ± 0.28.

P40G: the abundance fitness is -0.425 ± 0.042.

For the variant R37N, the abundance fitness was -0.1 ± 0.21.

As to R37C, the abundance fitness was -0.208 ± 0.088.

Consider R37S, for which the abundance fitness is -0.104 ± 0.06.

R37V: the abundance fitness is -0.148 ± 0.042.

For the variant R37Q, the abundance fitness is -0.008 ± 0.083.

Consider R37A, for which the abundance fitness stood at 0.039 ± 0.043.

For A67H, the abundance fitness is -0.766 ± 0.33.

On to A67Q, for which the abundance fitness was -0.711 ± 0.14.

On to A67W, for which the abundance fitness is -0.491 ± 0.099.

As to T53I, the abundance fitness is -0.055 ± 0.12.

For T53M, the abundance fitness turned out to be 0.015 ± 0.079.

Take T53L: the abundance fitness turned out to be 0.071 ± 0.056.

In the case of T53H, the abundance fitness was -0.394 ± 0.16.

With T53D, the abundance fitness was -0.855 ± 0.21.

On to Q72A, for which the abundance fitness is -0.191 ± 0.061.

For the variant Q72C, the abundance fitness is -0.272 ± 0.072.

Consider Q72S, for which the abundance fitness was -0.216 ± 0.059.

Turning to Q72E, the abundance fitness worked out at 0.116 ± 0.072.

Regarding Q72P, the abundance fitness is -0.987 ± 0.2.

On to T14N, for which the abundance fitness was -0.206 ± 0.15.

For T14L, the abundance fitness is -0.571 ± 0.09.

As for T14K, the abundance fitness was -0.295 ± 0.17.

T14Q: the abundance fitness was -0.252 ± 0.12.

T14C: the abundance fitness was -0.656 ± 0.18.

In the case of T14G, the abundance fitness was -0.265 ± 0.058.

Take T14F: the abundance fitness is -0.749 ± 0.17.

Turning to T14I, the abundance fitness was -0.541 ± 0.17.

For N57D, the abundance fitness was determined as 0.092 ± 0.073.

As to K61H, the abundance fitness came to 0.028 ± 0.1.

On to K61N, for which the abundance fitness was -0.52 ± 0.2.

Take K61Q: the abundance fitness is -0.618 ± 0.12.

For V16Q, the abundance fitness is -0.865 ± 0.15.

As to V16T, the abundance fitness was -0.572 ± 0.095.

On to V16P, for which the abundance fitness is -0.35 ± 0.068.

For E77A, the abundance fitness is -0.209 ± 0.069.

Take E77V: the abundance fitness was -0.658 ± 0.08.

For E77Q, the abundance fitness is -0.124 ± 0.057.

Turning to E77W, the abundance fitness was -0.399 ± 0.092.

In the case of L49N, the abundance fitness is -0.209 ± 0.14.

As for L49V, the abundance fitness is -0.837 ± 0.089.

Regarding L49A, the abundance fitness was -0.93 ± 0.11.

On to M46S, for which the abundance fitness was -0.933 ± 0.13.

For M46Q, the abundance fitness is -0.717 ± 0.22.

In the case of M46I, the abundance fitness is -0.778 ± 0.32.

For the variant M46V, the abundance fitness was -0.353 ± 0.054.

A8W: the abundance fitness was -0.776 ± 0.11.

In the case of A8F, the abundance fitness was -0.673 ± 0.18.

As for A8Q, the abundance fitness was -0.078 ± 0.063.

K48R: the abundance fitness is -0.185 ± 0.051.

K48E: the abundance fitness was -0.963 ± 0.21.

In the case of K48S, the abundance fitness is -0.891 ± 0.12.

For the variant K48G, the abundance fitness is -0.877 ± 0.096.

As for P54K, the abundance fitness came to 0.047 ± 0.088.

For the variant P54Y, the abundance fitness was -0.166 ± 0.21.

Turning to P54E, the abundance fitness was determined as 0.078 ± 0.073.

Turning to P54R, the abundance fitness is -0.026 ± 0.044.

As for L19W, the abundance fitness is -0.643 ± 0.11.

For the variant L19Y, the abundance fitness is 0.243 ± 0.21.

As to L19F, the abundance fitness is -0.781 ± 0.2.

As for L19I, the abundance fitness is -0.122 ± 0.12.

With Y24P, the abundance fitness is -0.598 ± 0.062.

Consider Y24W, for which the abundance fitness is -0.301 ± 0.071.

Take Y24D: the abundance fitness is -0.157 ± 0.14.

As for Y24G, the abundance fitness is -0.483 ± 0.062.

Consider T59M, for which the abundance fitness was -0.084 ± 0.08.

T59C: the abundance fitness was -0.135 ± 0.079.

For the variant T59V, the abundance fitness is -0.128 ± 0.052.

With R6N, the abundance fitness was -0.397 ± 0.16.

Regarding R6S, the abundance fitness was -0.385 ± 0.048.

With R6C, the abundance fitness is -0.752 ± 0.17.

In the case of R6H, the abundance fitness was -0.635 ± 0.23.

In the case of D62G, the abundance fitness was -0.194 ± 0.06.

In the case of D62P, the abundance fitness is -0.768 ± 0.11.

Turning to D62R, the abundance fitness was -0.2 ± 0.071.

Consider D62A, for which the abundance fitness was -0.083 ± 0.066.

As to D3Y, the abundance fitness is -0.794 ± 0.2.

Take D3E: the abundance fitness was -0.387 ± 0.097.

With D3T, the abundance fitness was -0.907 ± 0.25.

As for D3A, the abundance fitness was -0.777 ± 0.12.

D3C: the abundance fitness is -0.822 ± 0.23.

Take D3G: the abundance fitness was -0.805 ± 0.088.

With E80Q, the abundance fitness was -0.115 ± 0.084.

Consider E80G, for which the abundance fitness is -0.317 ± 0.053.

Consider E80I, for which the abundance fitness is -0.24 ± 0.31.

As for L75W, the abundance fitness was -0.868 ± 0.12.

With L75T, the abundance fitness is -0.924 ± 0.35.

For the variant L75E, the abundance fitness is -0.561 ± 0.14.

Turning to N42K, the abundance fitness is -0.74 ± 0.24.

With N42I, the abundance fitness was determined as 0.082 ± 0.31.

For N42F, the abundance fitness is -0.372 ± 0.14.

In the case of N42A, the abundance fitness is -0.188 ± 0.076.

As for C60E, the abundance fitness worked out at 0.285 ± 0.064.

Consider C60Q, for which the abundance fitness came out at 0.329 ± 0.068.

Take C60I: the abundance fitness was -0.473 ± 0.15.

Regarding C60H, the abundance fitness worked out at 0.185 ± 0.13.

On to C60G, for which the abundance fitness worked out at 0.084 ± 0.045.

As to L63G, the abundance fitness was -0.862 ± 0.082.

With L63R, the abundance fitness is -0.385 ± 0.059.

On to L63N, for which the abundance fitness was -0.556 ± 0.27.

Turning to W56C, the abundance fitness was -0.957 ± 0.5.

Turning to W56R, the abundance fitness is -0.574 ± 0.069.

As for W56A, the abundance fitness is -0.899 ± 0.13.

With W56F, the abundance fitness was -0.506 ± 0.24.

For W56E, the abundance fitness is -1.13 ± 0.42.

For P43W, the abundance fitness was -0.313 ± 0.068.

Consider P43C, for which the abundance fitness is -0.147 ± 0.08.

For the variant P43K, the abundance fitness is -0.114 ± 0.086.

In the case of P43R, the abundance fitness is -0.091 ± 0.039.

For P43A, the abundance fitness was -0.045 ± 0.054.

Take P43H: the abundance fitness was -0.221 ± 0.13.

With A7H, the abundance fitness is -0.149 ± 0.11.

With A7D, the abundance fitness turned out to be 0.065 ± 0.1.

With A7G, the abundance fitness is -0.152 ± 0.044.

For the variant W18C, the abundance fitness is 0.029 ± 0.069.

Turning to W18E, the abundance fitness amounted to 0.103 ± 0.083.

Regarding W18S, the abundance fitness amounted to 0.163 ± 0.045.

Turning to E31R, the abundance fitness was -0.238 ± 0.051.

For V13P, the abundance fitness was -0.396 ± 0.12.

Regarding V13M, the abundance fitness is -0.611 ± 0.11.

As to V13R, the abundance fitness was -0.851 ± 0.085.

On to V13A, for which the abundance fitness was -0.039 ± 0.061.

As for V13C, the abundance fitness turned out to be 0.023 ± 0.068.

Take V13G: the abundance fitness was -0.598 ± 0.042.

Turning to V13Q, the abundance fitness was -0.775 ± 0.14.

T29N: the abundance fitness was -0.338 ± 0.21.

Regarding E70P, the abundance fitness was -0.542 ± 0.12.

For the variant E70A, the abundance fitness is -0.209 ± 0.086.

As to E70R, the abundance fitness was -0.343 ± 0.061.

As for E70I, the abundance fitness is -0.468 ± 0.18.

With E70V, the abundance fitness is -0.211 ± 0.059.

For S71V, the abundance fitness was -0.429 ± 0.068.

Take S71A: the abundance fitness is -0.469 ± 0.11.

S71K: the abundance fitness is -0.538 ± 0.2.

S71T: the abundance fitness is -0.098 ± 0.08.

S71Q: the abundance fitness was -0.251 ± 0.1.
